Data reported in the supplement of paper PMC9170038.

Test system: K4 kissing-loop RNA reporter
Assay: apparent KD of K4 kissing-loop reporter; higher = weaker reporter binding
Conditions: Eterna round: R107
Description: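 RNA-MaP round R107: designed RNA switches with theophylline, tryptophan, arginine or FMN aptamers are transcribed on-chip within common flanks. They are titrated with a labelled K4 kissing-loop RNA reporter in RNA-MaP buffer (100 mM Tris pH 7.5, 80 mM KCl, 4 mM MgCl2), without ligand or with the indicated ligand. Median apparent KD per design.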

[1] = input ligand: theophylline 20 uM
[2] = input ligand: tryptophan 2.4 mM
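Note: bound reporter read as fluorescence of individual clusters on recovered sequencing chips by microscopy, with normalized cluster intensities fitted with a binding model.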

Row | Sequence | apparent KD of K4 kissing-loop reporter (input ligand: FMN 200 uM) [nM] | apparent KD of K4 kissing-loop reporter (input ligand: arginine 13.2 mM) [nM] | apparent KD of K4 kissing-loop reporter (input ligand: none) [nM] | apparent KD of K4 kissing-loop reporter [1] [nM] | apparent KD of K4 kissing-loop reporter [2] [nM]
1 | AAGAGAUCGAGAAGGAGCGAGAAAGCUAGUACAUAUGUACUAGCAAAGCAGUGAUGUUGCACUCAGGUAGGUCGCUCGAUCUCAA [AK1 SS Arginine B] | 395 | 299 | 432 | 335 | 314
2 | AAGAGCUAGGCGGCCGCCACUAGUUGUGAACACAUACAAGCCAGUGAUGUUGGUAUGGUGGACGGUAGGACCGGGCCUAGCUGAA [Exclusion - Tryptophan B (Freestyle 16)] | 180 | 229 | 224 | 259 | 283
3 | AAGAGGUAGGCGGCCGCCACUAGUUGUGAACACAUACGAGCCAGUGAUGUUGGUAUUGUGGGCGGUAGGACCGGGCCUACCUGAA [Exclusion - Tryptophan B (Freestyle 19)] | 319 | 336 | 358 | 322 | 281
4 | AAGCAGUCACGCGAAGCCAUCGAAGAUGGCCGAGGACCGGUACGGCCGCCACUCGGAGUGAUGUUCCGAAGACUGCAAAAUAAAA | 370 | 386 | 417 | 468 | 252
5 | AAGCAGUCACUCAAAGCCAUCGAAGAUGGACGAGGACCGGUACGGCCGCCACUCGGAGUGAUGUUCCGAAGACUGCAAAAUAAAA | 408 | 295 | 304 | 511 | 230
6 | AAGCAGUCACUCAAAGCCAUCGAAGAUGGUCGAGGACCGGUACGGCCGCCACUCGGAGUGAUGUUCCGAAGACUGCAAAAUAAAA | 407 | 394 | 424 | 411 | 346
7 | AAGCAGUCACUCUAAGCCAUCGAAGAUGGACGAGGACCGGUACGGCCGCCACUCGGAGUGAUGUUCCGAAGACUGCAAAAUAAAA | 379 | 402 | 466 | 396 | 399
8 | AAGCAGUCUCUUGUAGUCAUCGAAGAUGAACGAGGACCGGUACGGCCGCCACUCGGAGUGAUGUUCCGAAGACUGCAAAAUAAAA [MatMod 17 - Jieux - Exclusion - Tryptophan A] | 581 | 422 | 1010 | 765 | 180
9 | AAGCAUUGGUCUGAUACCAGUUGAUGACGAAUACGUCAACUGGAGUGAUGUUCCUAAAACAACCCUUGGCAGCAGACCGAUGCAA [MAT - Same State Theophlline B - Mod of Eli - D2] | 761 | 704 | 835 | 750 | 838
10 | AAGCCAGAGAUUGCUGCGGGUUCCAGAGAUACCAGCCGUAUUGAAGGCCCUUGGCAGCUCGAGUGAUGUUCGAGCCGUCUCCGGC [Onte] | 111 | 110 | 114 | 116 | 113
11 | AAGGCAGUUCGAGGAUAUCACAUACACUCCUUGAAUCAAGGAGUGAUGUUCCUUGAAGUGUAUGCAUGAGAAGGCGAAUUGCCUU [FMN B SS t5] | 113 | 103 | 109 | 103 | 101
12 | AAGGGCGAGGUAACGUGGAUAUCUCGUCGCAAGGAUAUCUGGAAACAGAGAAGGUGCUACAUUACCGGCAGUGAUGUUGCUGACC | 887 | 312 | 573 | 278 | 261
13 | AAGGUAUCACCAACUUGCAACAAAGGUGAUACCAGCAUCGAAAGAUGCCCUUGGCAGCACCAACUUGCAGUGAUGUUGCAAGUAA [(T)'-(H)'-(T1)-(T2)-(H1)-(H2)_Design10] | 170 | 161 | 159 | 186 | 170
14 | AAGGUCACUACUACAGUGAUGUUGUAGGAGCAGGAUAUGCAGAAAUGCAGAAGGGCUCGCUCCAGGUGACCGAAUGAAACAUUCA [Omei KL FMN A SS A v3] | 333 | 504 | 573 | 475 | 501
15 | AAGGUUCGUGGAAGGAGCGCCCGUGCGACUCGUUCAGUAAGUGAAGUCCGAGUGAUGUUCGGGCAGGUAGGUCGCCACGGGCAAA [Usontezaon] | 196 | 137 | 160 | 123 | 157
16 | AAGGUUGUGCAUGGGAGUGAUGUUCCCACGCAGGAUAUCGCUCACGCGAGAAGGGCGAGCACAACCGCUCAAGAAACUUGAGCAA [Omei KL FMN A SS C v2] | 133 | 118 | 133 | 106 | 126
17 | AAGUCACAGGCAGGAUAUGCUUAGUAAUAAGGCCAUAUAUACGUAUAGAGUGAUGUUUUGUACCAGGCAGAAGGGCUACAUCCGU [FMN B Excl V3 (+2GCs)] | 876 | 503 | 882 | 650 | 597
18 | AAGUCACAGGCAGGAUAUGCUUAGUAUUAAGGCCAUAUAUACGUAUAGAGUGAUGUUUUGUACCAGGCAGAAGGGCUACAUCCGU [FMN B Excl V4 (+U)] | 930 | 440 | 656 | 645 | 463
19 | AAGUCAUAGGCAGGAUAUGCAUUGUAGUAAGGCAAUAUAUACGUAUAGAGUGAUGUUUUGUACCAGGCAGAAGGGCUACAUCAGU [FMN B Excl V11 (+G)] | 826 | 367 | 645 | 868 | 492
20 | AAGUCUCGUUAAUUCGUGGUUUCGAUCGAUACCAGUAGCGAGAGUUACCCUUGGCAGCGAAAUGAGUGAUGUUCAUGAAAGAAGA [KL-XTheoA10] | 65.1 | 101 | 64.6 | 107 | 60
21 | AAGUGAUGUUGUAGUGAUGUUGUGAUGUUGCAGGAUAUAUAGUGAUGUAGAAGGGUAUGUACUUAUUUUUUUUUUGAGUUUUGUU [xgghzrmullin] | 82 | 32.3 | 60.2 | 47.1 | 68.3
22 | AAGUGUGUGGCGGCCGCCACUAGUCUCCAGUGAUGUUGGAGAUAUCACGUAAGUGAUAUCCGACAUAGGACCGGGCCAUAUAGAA [Same State - Tryptophan B (Freestyle 21)] | 601 | 318 | 688 | 556 | 474

Row | Sequence | apparent KD of K4 kissing-loop reporter (input ligand: FMN 200 uM) [nM] | apparent KD of K4 kissing-loop reporter (input ligand: arginine 13.2 mM) [nM] | apparent KD of K4 kissing-loop reporter (input ligand: none) [nM] | apparent KD of K4 kissing-loop reporter [1] [nM] | apparent KD of K4 kissing-loop reporter [2] [nM]
23 | AAUAAAAUCACGGCCGCCACUGAUACUAGUAUUAGCAGUGAUGUUGCUAUGUAUAAUUUAUUAAAUAGGACCGGGUGAAUAUUUA [#25 K4 Tryptophan B Exclusion] | 298 | 220 | 267 | 350 | 256
24 | AAUAAAAUCACGGCCGCCACUGAUGCUAAUAUUAGCAGUGAUGUUGCUAUGUAUAUUUUAUUUAACAGGACCGGGUGAAUAUUUA [JR_ExcTryptoB_Sub014] | 225 | 184 | 228 | 212 | 133
25 | AAUAAAAUCACGGCCGCCACUGAUUUUUUUAUUAGGAGUGAUGUUCCUAUGACUAUAUUAUUUAACAGGACCGGGUGAAUAUUUA [JR_SSTryptoB_Sub023] | 79.6 | 97.5 | 87.4 | 93.3 | 74.5
26 | AAUAAAAUCACGGCCGCCACUGAUUUUUUUAUUAGGAGUGAUGUUCCUUUGUCUAUAUACCUUAACAGGACCGGGUGAAUAUUUA [JR_SSTryptoB_Sub022] | 54.3 | 93.4 | 67.4 | 95.5 | 52.1
27 | AAUAAAAUCACGGCCGCCACUGGUACUAGUAUUAGCAGUGAUGUUGCUAUGUAUAAUUUAUUAAAUAGGACCGGGUGAAUAUUUA [#27 K4 Tryptophan B Exclusion] | 326 | 281 | 238 | 233 | 208
28 | AAUAACUAGUAUAUUUGUAAUAAAACAGAUACCAGUGAUAAUAAACACCCUUGGCAGCUGAUCGAGUGAUGUUCGUUUAUUUUAA [JR_SSTheophyA_Sub004] | 102 | 96.5 | 124 | 130 | 78.5
29 | AAUAACUAGUAUUUUUUUAAUAAUACAGAUACCAGUGAUAAUAAACACCCUUGGCAGCUGAUCGAGUGAUGUUCGUUUAUUUUAA [JR_SSTheophyA_Sub003] | 57.3 | 83.3 | 64 | 112 | 54
30 | AAUAAGCGCGGAAGGAGCGCCGCCAGUGAUGUUGGGAGUUAGAUACCAGUGAUGUUGGGCCGGCAGGUAGGUCGCCGCAAAGCUU [Exclusion Arginine B Gf 14] | 208 | 86.5 | 165 | 137 | 138
31 | AAUAAUGGAGUGAUGUUCCAGUAAUGGGAUACCAGACAUGAAAAUGUCCCUUGGCAGCUCAAAGGUCUAGUGAUGUUAGAAAGAA [KL-SSTheo-A5 #Double Kiss] | 273 | 300 | 310 | 282 | 232
32 | AAUACAGUGUCGGCCGCCACUGUAACAUGCCAUGAGACAUGAGACAUGAGUGAUGUUCAUGUAGACAGGACCGGGACUCAUGUAU [KL-SSTryp-B3 #analogue] | 450 | 373 | 455 | 370 | 227
33 | AAUACGUUCACGGCCGCCACUGAAUAAUUGGUAAGUAGUGAUGUUACUUUACAUAUCUUAUUUAACAGGACCGGGUGAUCGUUUA [JR_Nu_ExcTryptoB_Sub028] | 130 | 108 | 122 | 105 | 142
34 | AAUAUAAAGCAGUGAUGUUGCUUAUGAGAAGGAGCGCACGAAAGUGCAGGUAGGUCGCUCAGCCAAGUGGACGAAAACGUCCACA [whbob_SS_Arginine_A_sa106] | 82.1 | 92.5 | 86.3 | 85.3 | 72.1
35 | AAUAUAGUGAUGUUAUAUAAGAAGGAGUUACGAGGACCGGUACGGCCGCCACUCGAAACGAGUGAGGAUUUGGGAGAUUGGGUUU [SSTryptA.M] | 493 | 443 | 474 | 324 | 389
36 | AAUCAAUACAGAAGGAGCGUGACAAUUACUAUUGAAUUAGGAGCUAGUGAUGUUAGCAUAACACAGGUAGGUCGCUGUACAUUUA [JR_SSArginiB_Sub012] | 145 | 175 | 163 | 182 | 148
37 | AAUCAAUACAGAAGGAGCGUGACAAUUACUAUUGAUUCAGGAGCUAGUGAUGUUAGCAUUUCACAGGUAGGUCGCUGUACAUUUA [JR_SSArginiB_Sub013] | 165 | 203 | 201 | 213 | 153
38 | AAUCGCAGUGAUGUUGCGAUUCCGUUGAGGGAGGAUAUUGGUAAUACAAGAAGGUUCGGUUACGGGAGAUGUUAGUAAUAGGGCC [Exclusion FMN A GF21] | 46.2 | 41.3 | 61.8 |  | 85.2
39 | AAUGGAGGCUGAAGGAGCGCCGCCAGUGAUGUUGGGAGUUAGAUACCAGUGAUGUUGGGCCGGCAGGUAGGUCGCGGUUUUUAUU [Exclusion Arginine B Gf 16] | 186 | 78.4 | 136 | 153 | 126
40 | AAUGUACAGGGAAGGAGCGUAGUCCAGUGAUGUUGGAAUUAAAUUCCUGUGAUGUUGGUUAUACAGGUAGGUCGCCCUAAAGUGC [KL-XARG-B21] | 112 | 92.2 | 108 | 118 | 93.3
41 | AAUUUAGUGACGGCCGCCACUAGGGUGAUUUUUUUGUUUGAGUGAUGUUUUGAUGUUUGAUUUUGUAGGACCGGGUUAGGUGAUG [cccmullin] | 327 | 310 | 343 | 364 | 262
42 | AAUUUAGUGACGGCCGCCACUAUGGUGAUUUAUUUGUUUGAGUGAUGUUUUGAUGUUUGAUUUUGUAGGACCGGGUUAGGUGAUG [aaacmullin] | 355 | 293 | 364 | 354 | 279
43 | AAUUUAUUAACUGAUACCAGACUUAAUGAAUUGUAAAUUACUAGUGAUGUUAGUGAAUCUGUCCCUUGGCAGCAGUAUUUAUUAA [JR_ExcTheophyB_Sub010] | 144 | 209 | 173 | 208 | 124
